The values that follow come from publication PMC6412629, “β-Galactosidase from Lactobacillus helveticus DSM 20075: Biochemical Characterization and Recombinant Expression for Applications in Dairy Industry” (International Journal of Molecular Sciences, 2019).

Substrate in the series: O=[N+]([O-])c1ccccc1O[C@@H]1O[C@H](CO)[C@H](O)[C@H](O)[C@H]1O
Kind of series: purified protein. In kind it is biochemical, Lactobacillus helveticus. The following applies: 50 mM sodium phosphate pH 6.5, 30 °C, oNPG 0.5-22 mM, substrate inhibition seen.

B1: recombinant β-galactosidase from L. helveticus (EcoliBL21Lhβ-gal), LacLM (Lactobacillus helveticus; Q7WTB4:Q2E) (protein)
chain 1: MEANINWLDNPEVFRVNQLPAHSDHPFFRDYREWQKQHSSYQQSLNGKWKFHFSANPMDRPQDFYQRDFDSSNFDSIPVPSEIELSNYTQNQYINVLFPWEGKIFRRPAYALDPNDHEEGSFSKGADNTVGSYLKRFDLSSALIGKDVHIKFEGVEQAMYVWLNGHFVGYAEDSFTPSEFDLTPYIQDKDNLLAVEVFKHSTASWLEDQDMFRFSGIFRSVELLGIPATHLMDMDLKPRVADNYQDGIFNLKLHFIGKKAGSFHLLVKDIKGHTLLEKNEDIKENVQINNEKFENVHLWNNHDPYLYQLLIEVYDEQQNLLELIPFQFGFRRIEISPEKVVLLNGKRLIINGVNRHEWDAKRGRSITMSDMTTDINTFKENNINAVRTCHYPNQIPWYYLCDQNGIYVMAENNLESHGTWQKMGEIEPSDNVPGSIPQWKEAVIDRARINYETFKNHTSILFWSLGNESYAGDNIIAMNEFYKSHDDTRLVHYEGVVHRPELKDKISDVESCMYLPPKKVEEYLQNDPPKPFMECEYMHDMGNSDGGMGSYIKLLDKYPQYFGGFIWDFIDQALLVHDEISGHDVLRYGGDFDDRHSDYEFSGDGLMFADRTPKPAMQEVRYYYGLHK
chain 2: MDYTNNQLHIIYGDATLGVNGKDFQYIFSYERGGLESLKVHGKEWLYRVPTPTFWRATTDNDRGSGFNLKAAQWLGADMFTKCTDIHLKVDRHDFAELPIAPFNNKFSNHEYAKSAEISFTYQTLTTPATNAKIIYNIDDVGHIKVTMRYYGKKGLPPLPVIGIRLIMPTAATGFDYEGLSGETYPDRMAGAKEGKFHIDGLPVTEYLVPQENGMHMQTKKLTINRETTQNNVDRTNEKFSLSIQQAEKPFNFSCLPYTAEELENATHIEELPLVRRTVLVIAGAVRGVGGIDSWGTDVESAYHINPELDHEFSFILN
notes: overlapping lacLM genes in pET-21d(+) (NcoI/XhoI); C-terminal His-tag (vector), follows lacM end; E. coli BL21 Star (DE3), HisTrap purified; heterodimer ~109 kDa
The Km is the concentration of substrate that gives half-maximal velocity. By Vmax is commonly meant the top rate of the reaction or transport when substrate is in excess. As usually defined, the kcat is the number of substrate molecules converted per active site and unit of time at saturation. One may read the kcat/Km as the second-order rate constant that governs catalysis at low substrate concentration. Turning to B1, the Michaelis constant (Km) was determined as 1400 ± 300 µM, the Vmax is 476 µmol/min/mg, the kcat was 865 ± 120 s⁻¹ and the kcat/Km turned out to be 618000 M⁻¹ s⁻¹.
